Measured values as given in paper PMC6940849, “Structure-Based Redesign of a Self-Sufficient Flavin-Containing Monooxygenase towards Indigo Production” (International Journal of Molecular Sciences, 2019).
Numbering of substitutions follows the chain as printed. In names and notes the source's numbering stands.

B1: *mFMO (PTDH-*mFMO; mFMO M15L/S23A) (Methylophaga thalassica; M15L/S23A/W319A) (protein)
chain: MATRIAILGAGPSGLAQLRAFQAAQEKGAEIPELVCFEKQADWGGQWNYTWRTGLDENGEPVHSSMYRYLWSNGPKECLEFADYTFDEHFGKPIASYPPREVLWDYIKGRVEKAGVRKYIRFNTAVRHVEFNEDSQTFTVTVQDHTTDTIYSEEFDYVVCCTGHFSTPYVPEFEGFEKFGGRILHAHDFRDALEFKDKTVLLVGSSYSAEDIGSQCYKYGAKKLISCYRTAPMGYKWPENWDERPNLVRVDTENAYFADGSSEKVDAIILCTGYIHHFPFLNDDLRLVTNNRLWPLNLYKGVVWEDNPKFFYIGMQDQAYSFNMFDAQAWYARDVIMGRLPLPSKEEMKADSMAWREKELTLVTAEEMYTYQGDYIQNLIDMTDYPSFDIPATNKTFLEWKHHKKENIMTFRDHSYRSLMTGTMAPKHHTPWIDALDDSLEAYLSDKSEIPVAKEA
notes: N-terminal fusion to phosphite dehydrogenase (PTDH, cofactor regeneration; pCRE3-mFMO), Ni-Sepharose purified from E. coli NEB10beta
B2: *mFMO (PTDH-*mFMO; mFMO M15L/S23A) (Methylophaga thalassica; M15L/S23A/W319F) (protein)
chain: B1 chain with A319F
notes: as for B1
B3: *mFMO (PTDH-*mFMO; mFMO M15L/S23A) (Methylophaga thalassica; M15L/S23A/Y207W) (protein)
chain: B1 chain with Y207W, A319W
notes: as for B1
B4: *mFMO (PTDH-*mFMO; mFMO M15L/S23A) (Methylophaga thalassica; M15L/S23A/W319A/Y207W) (protein)
chain: B1 chain with Y207W
notes: as for B1
B5: *mFMO (PTDH-*mFMO; mFMO M15L/S23A) (Methylophaga thalassica; C78I/M15L/S23A/W319A/Y207W) (protein)
chain: B1 chain with C78I, Y207W
notes: as for B1
B6: *mFMO (PTDH-*mFMO; mFMO M15L/S23A) (Methylophaga thalassica; M15L/S23A) (protein)
chain: B1 chain with A319W
notes: as for B1
B7: *mFMO (PTDH-*mFMO; mFMO M15L/S23A) (Methylophaga thalassica; C78I/M15L/S23A) (protein)
chain: B1 chain with C78I, A319W
notes: as for B1
B8: *mFMO (PTDH-*mFMO; mFMO M15L/S23A) (Methylophaga thalassica; C78V/M15L/S23A) (protein)
chain: B1 chain with C78V, A319W
notes: as for B1
B9: *mFMO (PTDH-*mFMO; mFMO M15L/S23A) (Methylophaga thalassica; C78L/M15L/S23A) (protein)
chain: B1 chain with C78L, A319W
notes: as for B1
B10: *mFMO (PTDH-*mFMO; mFMO M15L/S23A) (Methylophaga thalassica; C78A/M15L/S23A) (protein)
chain: B1 chain with C78A, A319W
notes: as for B1

Substrate: c1ccc2[nH]ccc2c1
Assay: purified protein
Format: biochemical, Methylophaga thalassica
Conditions: NADPH, indole up to 1.6 mM
[1] = listed as printed as WT, table title says *mFMO

| Protein | Km [µM] | kcat [s⁻¹] | Km [1] [µM] | kcat [1] [s⁻¹] |
| --- | --- | --- | --- | --- |
| B1 | 900 | 0.42 |  |  |
| B2 | 400 | 0.64 |  |  |
| B3 | 100 | 0.31 |  |  |
| B4 | 800 | 0.8 |  |  |
| B5 | 800 | 0.93 |  |  |
| B6 |  |  | 400 | 0.85 |
| B7 | 800 | 1.28 |  |  |
| B8 | 700 | 1.04 |  |  |
| B9 | 800 | 0.7 |  |  |
| B10 | 400 | 0.79 |  |  |
